Experimental findings from US20220267422A1 are described below.

This experiment deals with doppel (Prnd) recombinant protein immobilized on the SPR sensor chip. As to the kind of experiment: SPR, BIAcore T100, recombinant protein immobilized on chip. On the technique in general: Surface plasmon resonance follows binding to a sensor surface in real time, without labels.
doppel (Prnd) recombinant protein immobilized on the SPR sensor chip, sequence (Q9UKY0 26-152): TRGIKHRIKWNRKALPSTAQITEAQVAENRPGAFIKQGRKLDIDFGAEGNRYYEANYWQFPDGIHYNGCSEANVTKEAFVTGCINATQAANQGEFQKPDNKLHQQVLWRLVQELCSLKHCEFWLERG

B1: Human monoclonal antibody 3D1 (antibody, human IgG1, kappa, V domains shown)
VH: EVQLVESGGGLVQPGGSLRLSCAASGFTFSDYAMSWVRQAPGKGLEWVSRISGSGGTKYYADSVKGRFTISRDNSKNTLYLQMNSLRAEDTAVYYCAKHQVYWALDVWGQGTLVTVSS
VL: DIQMTQSPSSLSASVGDRVTITCRASQSISNWLNWYQQKPGKAPKLLIYATSSLQSGVPSRFSGSGSGTDFTLTISSLQPEDFATYYCQQSYSYPWTFGQGTKVEIKR
What is called Kd is the constant that tells how readily two partners part at equilibrium. For the molecule B1, the Kd was determined as 308 pM.
